In the supplement of paper PMC9732359:
± gives the uncertainty stated by the source.

Assay: protein stability index of a GFP-peptide fusion (yeast GPS) (PSI 1-4); higher = more stable; sorted into four equal gates, so the index is relative within each strain
Outline: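 Plasmids isolated from each sorting gate were PCR-amplified and Illumina-sequenced, and barcodes assigned the reads to strains. The gates, four of equal size, were set by GFP/Cherry fluorescence ratio on mid-log cultures in leucine-free medium. These cultures were yeast carrying a pooled library of tiled 17-residue yeast protein peptides fused downstream of GFP on a plasmid that also expresses Cherry. The protein stability index is the sum of every gate's read frequency times its gate number.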

## HLGCVPIGEAGDFGGWF [RIP1]
doa10∆
  protein stability index: 2.81 ± 0.12
pdr5∆
  protein stability index: 3.08 ± 0.11
san1∆
  protein stability index: 2.7 ± 0.11
ubr1∆
  protein stability index: 3.06 ± 0.14

## IEKSRLFSEKTIRYLMQ [SNF6]
doa10∆
  protein stability index: 1.82 ± 0.069
pdr5∆
  protein stability index: 2.29 ± 0.048
san1∆
  protein stability index: 2.28 ± 0.084
ubr1∆
  protein stability index: 1.86 ± 0.055

## ADKIVDEFPELKEPVED [NUT2]
doa10∆
  protein stability index: 3.71 ± 0.15
pdr5∆
  protein stability index: 3.52 ± 0.11
san1∆
  protein stability index: 3.23 ± 0.27
ubr1∆
  protein stability index: 3.63 ± 0.14

## KMLSCAGADRLQQGMRG [RPL10]
doa10∆
  protein stability index: 3.43 ± 0.12
pdr5∆
  protein stability index: 3.28 ± 0.13
san1∆
  protein stability index: 2.98 ± 0.11
ubr1∆
  protein stability index: 3.32 ± 0.085

## AAPAATSAASGDAAPAE [RPP0]
doa10∆
  protein stability index: 2.6 ± 0.091
pdr5∆
  protein stability index: 2.38 ± 0.049
san1∆
  protein stability index: 1.6 ± 0.1
ubr1∆
  protein stability index: 2.42 ± 0.063

## WIKFDQELYNELCKKNE [RPN7]
doa10∆
  protein stability index: 3.12 ± 0.13
pdr5∆
  protein stability index: 3.05 ± 0.28
san1∆
  protein stability index: 2.79 ± 0.17
ubr1∆
  protein stability index: 3.1 ± 0.17

## LGKVRFANYKLLLKKII [SRB4]
doa10∆
  protein stability index: 1.71 ± 0.063
pdr5∆
  protein stability index: 1.62 ± 0.05
san1∆
  protein stability index: 1.43 ± 0.14
ubr1∆
  protein stability index: 1.53 ± 0.044

## SLGFNEVFSRPEWMILT [RPO21]
doa10∆
  protein stability index: 1.5 ± 0.11
pdr5∆
  protein stability index: 1.74 ± 0.1
san1∆
  protein stability index: 1.62 ± 0.12
ubr1∆
  protein stability index: 1.21 ± 0.066

## LPVKHPELFESLGIAQP [RPT6]
doa10∆
  protein stability index: 2.65 ± 0.074
pdr5∆
  protein stability index: 3.01 ± 0.039
san1∆
  protein stability index: 2.55 ± 0.077
ubr1∆
  protein stability index: 2.73 ± 0.054

## VRAEELNISGEFFRNKL [RPL16A]
doa10∆
  protein stability index: 3.67 ± 0.21
pdr5∆
  protein stability index: 3.17 ± 0.23
san1∆
  protein stability index: 3.07 ± 0.18
ubr1∆
  protein stability index: 3.36 ± 0.2

## GGLKNGVLYQGNIQISE [DIS3]
doa10∆
  protein stability index: 3.25 ± 0.098
pdr5∆
  protein stability index: 3.27 ± 0.085
san1∆
  protein stability index: 2.9 ± 0.072
ubr1∆
  protein stability index: 3.17 ± 0.065

## ISLSVHTLALEFVNGGK [RRP46]
doa10∆
  protein stability index: 2.49 ± 0.1
pdr5∆
  protein stability index: 2.79 ± 0.068
san1∆
  protein stability index: 2.06 ± 0.08
ubr1∆
  protein stability index: 2.66 ± 0.079

## TEQQIEIPEGVTVSIKS [RPL9B]
doa10∆
  protein stability index: 2.24 ± 0.062
pdr5∆
  protein stability index: 2.73 ± 0.071
san1∆
  protein stability index: 2.39 ± 0.067
ubr1∆
  protein stability index: 2.47 ± 0.059

## EKAVEEKPAVKSYASLL [RPT3]
doa10∆
  protein stability index: 2.89 ± 0.06
pdr5∆
  protein stability index: 3.02 ± 0.053
san1∆
  protein stability index: 2.92 ± 0.052
ubr1∆
  protein stability index: 2.96 ± 0.049

## ILTREVQNSTLAQLTSK [RPS1B]
doa10∆
  protein stability index: 2.14 ± 0.069
pdr5∆
  protein stability index: 2.71 ± 0.055
san1∆
  protein stability index: 2.48 ± 0.075
ubr1∆
  protein stability index: 2.45 ± 0.04

## IAGTFNVGKPDQSIASG [YOR098C/NUP1]
doa10∆
  protein stability index: 3.14 ± 0.1
pdr5∆
  protein stability index: 2.68 ± 0.18
san1∆
  protein stability index: 2.96 ± 0.063
ubr1∆
  protein stability index: 2.98 ± 0.082

## AIRKAPHNSKSLGFLQQ [RPN3]
doa10∆
  protein stability index: 2.9 ± 0.082
pdr5∆
  protein stability index: 2.7 ± 0.086
san1∆
  protein stability index: 2.84 ± 0.083
ubr1∆
  protein stability index: 2.54 ± 0.13

## TINKAVQVKVLGKYEFS [ESC2]
doa10∆
  protein stability index: 1.48 ± 0.077
pdr5∆
  protein stability index: 1.37 ± 0.092
san1∆
  protein stability index: 1.89 ± 0.18
ubr1∆
  protein stability index: 2 ± 0.076

## EINETEFIRCGCLIKNL [RMP1]
doa10∆
  protein stability index: 2.48 ± 0.11
pdr5∆
  protein stability index: 2.98 ± 0.096
san1∆
  protein stability index: 2.82 ± 0.099
ubr1∆
  protein stability index: 2.91 ± 0.055

## SSFRPCPLSQQFCGIKE [BRR2]
doa10∆
  protein stability index: 2.45 ± 0.073
pdr5∆
  protein stability index: 1.9 ± 0.054
san1∆
  protein stability index: 2.38 ± 0.068
ubr1∆
  protein stability index: 2.31 ± 0.037

## VNKVPQNVAGDKTAVKL [SWP82]
doa10∆
  protein stability index: 2.71 ± 0.16
pdr5∆
  protein stability index: 3.04 ± 0.11
san1∆
  protein stability index: 2.8 ± 0.096
ubr1∆
  protein stability index: 3.07 ± 0.071

## GGKSVGFGLVYNSVAEA [RPS24A]
doa10∆
  protein stability index: 3.11 ± 0.052
pdr5∆
  protein stability index: 3.29 ± 0.05
san1∆
  protein stability index: 3.15 ± 0.035
ubr1∆
  protein stability index: 2.84 ± 0.054

## RLKDVEWVKLHRLLQRA [RMP1]
doa10∆
  protein stability index: 3.16 ± 0.085
pdr5∆
  protein stability index: 3.13 ± 0.093
san1∆
  protein stability index: 3.24 ± 0.06
ubr1∆
  protein stability index: 3.02 ± 0.079

## GNTVVDGEGKVDSISLH [YCG1]
doa10∆
  protein stability index: 3.54 ± 0.3
pdr5∆
  protein stability index: 3.53 ± 0.23

## VHEWEVSKPSLLHETND [PRP8]
doa10∆
  protein stability index: 3.25 ± 0.11
pdr5∆
  protein stability index: 3.05 ± 0.14
ubr1∆
  protein stability index: 3.23 ± 0.072

## DVKSSLSKVFSDVLFEF [YJL039C/NUP192]
doa10∆
  protein stability index: 2.82 ± 0.12
pdr5∆
  protein stability index: 3.28 ± 0.071
san1∆
  protein stability index: 2.58 ± 0.1
ubr1∆
  protein stability index: 2.89 ± 0.053

## DRTLPHFSKDDYSPESK [RPO21]
doa10∆
  protein stability index: 3.07 ± 0.1
pdr5∆
  protein stability index: 3.22 ± 0.074
san1∆
  protein stability index: 2.85 ± 0.099
ubr1∆
  protein stability index: 3.42 ± 0.093

## KLVRDAFALAKEKAPTI [RPT5]
doa10∆
  protein stability index: 2.56 ± 0.072
pdr5∆
  protein stability index: 2.49 ± 0.09
san1∆
  protein stability index: 2.94 ± 0.083
ubr1∆
  protein stability index: 3.08 ± 0.083

## ISEINFLHESSFDSIDH [CSI1]
doa10∆
  protein stability index: 2.54 ± 0.05
pdr5∆
  protein stability index: 2.95 ± 0.06
san1∆
  protein stability index: 2.51 ± 0.069
ubr1∆
  protein stability index: 2.84 ± 0.041

## MPPKFDPNEVKYLYLRA [RPL12A]
doa10∆
  protein stability index: 2 ± 0.093
pdr5∆
  protein stability index: 2.09 ± 0.17
san1∆
  protein stability index: 2.98 ± 0.2
ubr1∆
  protein stability index: 1.78 ± 0.079

## NIVHNFKERQMMVSYPK [AAR2]
doa10∆
  protein stability index: 3.04 ± 0.13
pdr5∆
  protein stability index: 2.33 ± 0.1
san1∆
  protein stability index: 1.9 ± 0.15
ubr1∆
  protein stability index: 2.19 ± 0.18

## NSIWGSSLRKNASGNKR [ITC1]
doa10∆
  protein stability index: 1.6 ± 0.062
pdr5∆
  protein stability index: 2.12 ± 0.097
san1∆
  protein stability index: 2.5 ± 0.11
ubr1∆
  protein stability index: 1.86 ± 0.044

## WAVTLDTSRPDLEWQEL [DSN1]
doa10∆
  protein stability index: 3.35 ± 0.072
pdr5∆
  protein stability index: 3.18 ± 0.065
san1∆
  protein stability index: 3.13 ± 0.047
ubr1∆
  protein stability index: 3.14 ± 0.033

## TLTASPDGTLIASAGKD [ASC1]
doa10∆
  protein stability index: 2.86 ± 0.093
pdr5∆
  protein stability index: 3.19 ± 0.1
san1∆
  protein stability index: 3.12 ± 0.065
ubr1∆
  protein stability index: 3.14 ± 0.063

## NLRKSRGMLGLLEPPAK [RPO31]
doa10∆
  protein stability index: 1.61 ± 0.22
pdr5∆
  protein stability index: 1.18 ± 0.21

## KNDLFVIWSEDNDEKLI [RPO21]
doa10∆
  protein stability index: 2.83 ± 0.077
pdr5∆
  protein stability index: 2.55 ± 0.096
san1∆
  protein stability index: 3.1 ± 0.045
ubr1∆
  protein stability index: 2.44 ± 0.089

## AYLLLNAAGNTPDATKI [RPP2A]
doa10∆
  protein stability index: 2.2 ± 0.038
pdr5∆
  protein stability index: 2.17 ± 0.036
san1∆
  protein stability index: 2.17 ± 0.051
ubr1∆
  protein stability index: 2.49 ± 0.039

## QFEIPISDDDDSALRYS [POP4]
doa10∆
  protein stability index: 2.98 ± 0.071
pdr5∆
  protein stability index: 2.75 ± 0.096
san1∆
  protein stability index: 2.54 ± 0.049
ubr1∆
  protein stability index: 3.16 ± 0.038

## ISKHSKQAIYTRAAASE [RPS25B]
doa10∆
  protein stability index: 2.74 ± 0.055
pdr5∆
  protein stability index: 2.73 ± 0.048
san1∆
  protein stability index: 2.6 ± 0.047
ubr1∆
  protein stability index: 2.86 ± 0.041

## VVPDLGHLNGHTPTIAS [SSN2]
doa10∆
  protein stability index: 2.15 ± 0.045
pdr5∆
  protein stability index: 2.65 ± 0.055
san1∆
  protein stability index: 2.69 ± 0.048
ubr1∆
  protein stability index: 2.59 ± 0.038

## SEDVSRDHEKDTYRTLM [YIL149C/MLP2]
doa10∆
  protein stability index: 3.36 ± 0.047
pdr5∆
  protein stability index: 3.41 ± 0.051
san1∆
  protein stability index: 3.43 ± 0.035
ubr1∆
  protein stability index: 3.33 ± 0.047

## TFRLPKTLKLARAPKYA [RPL25]
doa10∆
  protein stability index: 1.69 ± 0.076
pdr5∆
  protein stability index: 1.61 ± 0.072
san1∆
  protein stability index: 1.23 ± 0.19
ubr1∆
  protein stability index: 1.19 ± 0.047

## IMKNKDFILSLLHHVSE [YJL039C/NUP192]
doa10∆
  protein stability index: 2.41 ± 0.12
pdr5∆
  protein stability index: 2.35 ± 0.099
san1∆
  protein stability index: 1.92 ± 0.11
ubr1∆
  protein stability index: 2.52 ± 0.065

## DQVVVRGIDTLQKKVAS [RPB3]
doa10∆
  protein stability index: 2.39 ± 0.28
pdr5∆
  protein stability index: 3.29 ± 0.19
san1∆
  protein stability index: 2.68 ± 0.28

## NHNKTKLLKSLKNTKYF [PRP8]
doa10∆
  protein stability index: 1.8 ± 0.078
pdr5∆
  protein stability index: 1.83 ± 0.052
san1∆
  protein stability index: 1.54 ± 0.095
ubr1∆
  protein stability index: 2.15 ± 0.073

## GKHNLTIWCVCDSYLDA [BRR2]
doa10∆
  protein stability index: 2.04 ± 0.059
pdr5∆
  protein stability index: 2.26 ± 0.083
san1∆
  protein stability index: 2.73 ± 0.093
ubr1∆
  protein stability index: 2.31 ± 0.045

## RIMSTRCMMAAQYFYSG [DIS3]
doa10∆
  protein stability index: 1.67 ± 0.06
pdr5∆
  protein stability index: 1.95 ± 0.058
san1∆
  protein stability index: 1.58 ± 0.079
ubr1∆
  protein stability index: 1.77 ± 0.04

## VLVLHGDKDTRADIVRN [ISW2]
doa10∆
  protein stability index: 3.02 ± 0.063
pdr5∆
  protein stability index: 3.17 ± 0.063
san1∆
  protein stability index: 2.9 ± 0.078
ubr1∆
  protein stability index: 3.06 ± 0.054

## EIVWTSSLIKAGLDKGI [RPO31]
doa10∆
  protein stability index: 1.92 ± 0.047
pdr5∆
  protein stability index: 1.96 ± 0.061
san1∆
  protein stability index: 2.54 ± 0.05
ubr1∆
  protein stability index: 1.57 ± 0.057

## CFDSTTGRDAGFGILED [RRP40]
doa10∆
  protein stability index: 3.33 ± 0.13
pdr5∆
  protein stability index: 3.24 ± 0.13
san1∆
  protein stability index: 3.47 ± 0.12
ubr1∆
  protein stability index: 3.41 ± 0.074

## EGQLKPGDGSSYINVTF [RPC25]
doa10∆
  protein stability index: 3.44 ± 0.15
pdr5∆
  protein stability index: 3.12 ± 0.15
san1∆
  protein stability index: 2.77 ± 0.19
ubr1∆
  protein stability index: 3.02 ± 0.11

## IGFITSGTYHLNCGNGM [POP1]
doa10∆
  protein stability index: 2.56 ± 0.1
pdr5∆
  protein stability index: 2.93 ± 0.082
san1∆
  protein stability index: 2.09 ± 0.093
ubr1∆
  protein stability index: 2.92 ± 0.048

## VDFQNDLKDILEKVVPL [BRR2]
doa10∆
  protein stability index: 3.17 ± 0.18
pdr5∆
  protein stability index: 2.88 ± 0.13
san1∆
  protein stability index: 2.9 ± 0.15
ubr1∆
  protein stability index: 2.69 ± 0.066
